{"source": "patent US20260184766A1", "binders": {"B1": {"name": "SKM chimeric bovine-human IgG1 (ultralong CDR3) (antibody)", "VH": "QVQLRESGPSLVKPSQTLSLTCTASGFSLSDKAVGWVRQAPGKALEWLGSIDTGGNTGYNPGLKSRLSITKDNSKSQVSLSVSSVTTEDSATYYCTTVHQETLRSCPDGYIDNSGCTADWGCAALDCWRRRFGYHSTDPSHYTGATYIYTYSLHIDAWGQGLLVTVSS", "VL": "QAVLNQPSSVSGSLGQRVSITCSGSSSNVGNGYVSWYQLIPGSAPRTLIYGDTSRASGVPDRFSGSRSGNTATLTISSLQAEDEADYFCASAEDSSSNAVFGSGTTLTVL"}, "B2": {"name": "R2D9 chimeric bovine-human IgG1 (ultralong CDR3) (antibody)", "VH": "QVQLRESGPSLVKPSQTLSLTCTASGFSLSDKAIGWVRQAPGKALEWLGSIDTRGNTGYNPGLKSRLSITKDSSKSQVSLSVNSVTTEDSATYLCAIVQQITHKTCPNGYNWFDRCCSWDGTCGDGCCSNRAWPSGNGRADSSIGETYGYEFHVAAWGQGLLVTVSS", "VL": "B1 VL"}, "B3": {"name": "SKD chimeric bovine-human IgG1 (ultralong CDR3) (antibody)", "VH": "QVQLRESGPSLVKPSQTLSLTCTASGFSLSDKAVGWVRQAPGKALEWLGSIDTGGNTGYNPGLKSRLSITKDNSKSQVSLSVSSVTTEDSATYYCTTVHQRTSEKRSCPGGSSRRYPSGASCDVSGGACACYVSNCRGVLCPTLNEIVAYTYEWHVDAWGQGLLVTVSS", "VL": "B1 VL"}, "B4": {"name": "R4C1 chimeric bovine-human IgG1 (ultralong CDR3) (antibody)", "VH": "QVQLRESGPSLVKPSQTLSLTCTASGFSLSDKAVGWVRQAPGKPLEWLGSIDTAENTGYNPGLKSRLSITKDNSKSQVSLSVSSVTTEDSATYYCATVHQKTRKEKNCPDGYIYSSNTASGYDCGVWICRRVGSAFCSRTGDYTSPSEFDIYEFYVEGWGQGLLVTVSS", "VL": "B1 VL"}}, "key": {"[1]": {"molecular_target": "T1, SARS CoV-2 spike trimer protein from the parental Wuhan-Hu-1 isolate (recombinant stabilized extracellular domain) (SARS-CoV-2 (Wuhan-Hu-1))", "test": "ELISA on coated recombinant stabilized spike protein, panel WT, OD 450", "details": "remark: other sources report otherwise"}, "[2]": {"molecular_target": "T1, SARS CoV-2 spike trimer protein from …", "test": "ELISA, spike coated, chimeric IgG1", "details": "remark: other sources report otherwise"}, "[3]": {"molecular_target": "SARS-CoV-2 (antigen of the ELISA of FIG. 5E)", "test": "ELISA on SARS-CoV-2 antigen (spike or RBD not stated), OD 450"}, "[4]": {"molecular_target": "T1, SARS CoV-2 spike trimer protein from …", "test": "ELISA on coated spike protein, anti-human Fc-HRP, OD450", "details": "remark: other sources report otherwise"}}, "data": [{"binder": "B1", "values": [{"measurement": "EC50 (read off the curve)", "setting": "[1]", "result": 200, "unit": "pM"}, {"measurement": "EC50", "setting": "[2]", "result": 190, "unit": "pM"}]}, {"binder": "B2", "values": [{"measurement": "EC50 (read off the curve)", "setting": "[3]", "result": 30, "unit": "pM"}]}, {"binder": "B3", "values": [{"measurement": "EC50", "setting": "[2]", "result": 160, "unit": "pM"}]}, {"binder": "B4", "values": [{"measurement": "EC50 (read off the curve)", "setting": "[1]", "result": 300, "unit": "pM"}, {"measurement": "EC50", "setting": "[2]", "result": 200, "unit": "pM"}, {"measurement": "EC50 (read off the curve)", "setting": "[4]", "result": 30, "unit": "pM"}]}]}
